Biological target: the molecule itself
Assay: cryo-EM structure; Pra1:Zn2+ complex; 20 mM Tris-HCl pH 8.0, 150 mM NaCl, 1 mM ZnSO4, 0.05% BSA as additive; C1 map, 2.5 Å

B1: Candida albicans Pra1, recombinant wild type (full-length excluding the signal peptide) (natural protein)
chain: APVTVTRFVDASPTGYDWRADWVKGFPIDSSCNATQYNQLSTGLQEAQLLAEHARDHTLRFGSKSPFFRKYFGNETASAEVVGHFDNVVGADKSSILFLCDDLDDKCKNDGWAGYWRGSNHSDQTIICDLSFVTRRYLTQLCSSGYTVSKSKTNIFWAGDLLHRFWHLKSIGQLVIEHYADTYEEVLELAQENSTYAVRNSNSLIYYALDVYAYDVTIPGEGCNGDGTSYKKSDFSSFEDSDSGSDSGASSTASSSHQHTDSNPSATTDANSHCHTHADGEVHC
modifications: N-linked glycosylation at Asn 48, Asn 89, Asn 135 and Asn 208; three intramolecular disulfide bonds
notes: Pra1 of Candida albicans, codon-optimized full-length PRA1 excluding the signal peptide; the precursor is 299 amino acids including its N-terminal signal peptide; residues 31-251 are seen in the cryo-EM maps; A TEV protease site stood between the His-tag and Pra1; also called zincophore Pra1; wild-type Pra1; not shown: His-tag, N-terminal, cleaved
stoichiometry N: 6

— publication PMC12663325, “Structural insights into mechanisms of zinc scavenging by the Candida albicans zincophore Pra1” (Nature Communications, 2025)
